Laboratory results as given in publication PMC12416549 (2024).
Where a chain is given by its changes, count along the chain named. Numbers in names are those of the source.

T1: TNFR1 (Homo sapiens, UniProt P19438)
T1 chain: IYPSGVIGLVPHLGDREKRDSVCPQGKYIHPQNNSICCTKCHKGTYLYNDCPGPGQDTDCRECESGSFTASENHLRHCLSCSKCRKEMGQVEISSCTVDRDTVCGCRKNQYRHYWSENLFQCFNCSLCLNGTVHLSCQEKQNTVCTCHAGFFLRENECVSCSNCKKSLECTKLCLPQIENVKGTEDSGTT

B1: M2A (designed binder)
chain: SAEEEVEKAAKEYEKKKKEAIEKHLEKLKAKDKEAAERFLKELEEAAKEYAKDEAKTMSEEEAKRRAKKYKEKVLLSELSEEEQKEIKEAEEKLVRTILKYVEEAAK
B2: Y70H (designed binder)
chain: B1 chain with A2M, Y70H
B3: L43R (designed binder)
chain: B1 chain with A2M, L43R
B4: R38N (designed binder)
chain: B1 chain with A2M, R38N
B5: S80P (designed binder)
chain: B1 chain with A2M, S80P
B6: K56V (designed binder)
chain: B1 chain with A2M, K56V
B7: K29M (designed binder)
chain: B1 chain with A2M, K29M
B8: A46C (designed binder)
chain: B1 chain with A2M, A46C
B9: K16A (designed binder)
chain: B1 chain with A2M, K16A
B10: E104T (designed binder)
chain: B1 chain with A2M, E104T
B11: A36F (designed binder)
chain: B1 chain with A2M, A36F
B12: F39T (designed binder)
chain: B1 chain with A2M, F39T
B13: L25V (designed binder)
chain: B1 chain with A2M, L25V
B14: A36S (designed binder)
chain: B1 chain with A2M, A36S
B15: A20G (designed binder)
chain: B1 chain with A2M, A20G
B16: L99V (designed binder)
chain: B1 chain with A2M, L99V
B17: E72P (designed binder)
chain: B1 chain with A2M, E72P
B18: K73A (designed binder)
chain: B1 chain with A2M, K73A
B19: I98V (designed binder)
chain: B1 chain with A2M, I98V
B20: A105T (designed binder)
chain: B1 chain with A2M, A105T
B21: K15P (designed binder)
chain: B1 chain with A2M, K15P
B22: A67H (designed binder)
chain: B1 chain with A2M, A67H
B23: K23P (designed binder)
chain: B1 chain with A2M, K23P
B24: L40E (designed binder)
chain: B1 chain with A2M, L40E
B25: E91S (designed binder)
chain: B1 chain with A2M, E91S
B26: K71E (designed binder)
chain: B1 chain with A2M, K71E
B27: A106F (designed binder)
chain: B1 chain with A2M, A106F
B28: K73Y (designed binder)
chain: B1 chain with A2M, K73Y
B29: K41F (designed binder)
chain: B1 chain with A2M, K41F
B30: A47V (designed binder)
chain: B1 chain with A2M, A47V
B31: K31M (designed binder)
chain: B1 chain with A2M, K31M
B32: E26F (designed binder)
chain: B1 chain with A2M, E26F
B33: E61C (designed binder)
chain: B1 chain with A2M, E61C
B34: A63P (designed binder)
chain: B1 chain with A2M, A63P
B35: E4D (designed binder)
chain: B1 chain with A2M, E4D
B36: R38A (designed binder)
chain: B1 chain with A2M, R38A
B37: K56M (designed binder)
chain: B1 chain with A2M, K56M
B38: V95E (designed binder)
chain: B1 chain with A2M, V95E
B39: E4L (designed binder)
chain: B1 chain with A2M, E4L
B40: L99T (designed binder)
chain: B1 chain with A2M, L99T
B41: A90Q (designed binder)
chain: B1 chain with A2M, A90Q
B42: L43M (designed binder)
chain: B1 chain with A2M, L43M
B43: L75T (designed binder)
chain: B1 chain with A2M, L75T
B44: V74E (designed binder)
chain: B1 chain with A2M, V74E
B45: K48P (designed binder)
chain: B1 chain with A2M, K48P
B46: E60G (designed binder)
chain: B1 chain with A2M, E60G
B47: E34L (designed binder)
chain: B1 chain with A2M, E34L
B48: E44I (designed binder)
chain: B1 chain with A2M, E44I
B49: K71Q (designed binder)
chain: B1 chain with A2M, K71Q
B50: S1Q (designed binder)
chain: B1 chain with S1Q, A2M
B51: S80A (designed binder)
chain: B1 chain with A2M, S80A
B52: E61R (designed binder)
chain: B1 chain with A2M, E61R
B53: E54T (designed binder)
chain: B1 chain with A2M, E54T
B54: E26S (designed binder)
chain: B1 chain with A2M, E26S
B55: E72L (designed binder)
chain: B1 chain with A2M, E72L
B56: K16I (designed binder)
chain: B1 chain with A2M, K16I
B57: K85G (designed binder)
chain: B1 chain with A2M, K85G
B58: A106Q (designed binder)
chain: B1 chain with A2M, A106Q
B59: S59Y (designed binder)
chain: B1 chain with A2M, S59Y

Molecular target: T1, TNFR1
Experiment: yeast display SC50

Row | apparent Kd (screen) [nM] | Binder
1 | 0.49 | B1
2 | 5.31 | B2
3 | 13.8 | B3
4 | 2.48 | B4
5 | 0.446 | B5
6 | 2.73 | B6
7 | 0.869 | B7
8 | 1.86 | B8
9 | 2.73 | B9
10 | 0.49 | B10
11 | 1.27 | B11
12 | 2.73 | B12
13 | 1.27 | B13
14 | 1.05 | B14
15 | 2.73 | B15
16 | 2.25 | B16
17 | 1.05 | B17
18 | 12.5 | B18
19 | 11.4 | B19
20 | 0.869 | B20

Row | apparent Kd (screen) [nM] | Binder
21 | 6.43 | B21
22 | 10.4 | B22
23 | 11.4 | B23
24 | 0.49 | B24
25 | 10.4 | B25
26 | 2.73 | B26
27 | 13.8 | B27
28 | 10.4 | B28
29 | 0.718 | B29
30 | 0.49 | B30
31 | 0.49 | B31
32 | 0.956 | B32
33 | 1.86 | B33
34 | 6.43 | B34
35 | 0.446 | B35
36 | 2.73 | B36
37 | 0.718 | B37
38 | 11.4 | B38
39 | 0.79 | B39
40 | 5.31 | B40

Row | apparent Kd (screen) [nM] | Binder
41 | 0.49 | B41
42 | 1.86 | B42
43 | 0.446 | B43
44 | 0.304 | B44
45 | 12.5 | B45
46 | 1.54 | B46
47 | 0.446 | B47
48 | 0.956 | B48
49 | 0.446 | B49
50 | 0.539 | B50
51 | 1.16 | B51
52 | 2.48 | B52
53 | 12.5 | B53
54 | 0.539 | B54
55 | 0.446 | B55
56 | 0.446 | B56
57 | 0.49 | B57
58 | 2.05 | B58
59 | 7.78 | B59
